Test results taken from patent US20120316071A1 (published 2012).
Each block holds one binder with its values, some of them ahead of it.

How the values were obtained:
[1] = biological target: T1, rHuman IGF-1 sR, CF (R&D Systems Cat#391-GR) (human, UniProt P08069 31-932); assay: ECL Multispot (MSD), 10 nM Fab; blank 198
T1 construct: Bought soluble receptor; also called insulin-like growth factor-1 soluble receptor

[2] = biological target: T2, rHuman P-Cadherin/Fc Chimera, CF (R&D Systems Cat#861-PC) (human, UniProt P22223 108-654); assay: ECL Multispot (MSD), 10 nM Fab; blank 198
T2 construct: Bought reagent; Fc part of the bought chimera not given

[3] = biological target: T3, rHuman Erythropoietin R/Fc Chimera, CF (R&D Systems Cat#963-ER) (human, UniProt P19235 25-250); assay: ECL Multispot (MSD), 10 nM Fab; blank 198
T3 construct: Bought reagent; also called EPO R; EPO R/Fc; Fc part of the bought chimera not given
T3 sequence (looked up): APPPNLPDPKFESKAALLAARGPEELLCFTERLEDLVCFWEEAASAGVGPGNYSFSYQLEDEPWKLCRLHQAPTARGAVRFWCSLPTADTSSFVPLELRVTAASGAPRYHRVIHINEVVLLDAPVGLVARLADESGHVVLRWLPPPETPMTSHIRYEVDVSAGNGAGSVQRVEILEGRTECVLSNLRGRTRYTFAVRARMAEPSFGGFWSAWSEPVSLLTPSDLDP

[4] = biological target: T4, rHuman ErbB2/Fc Chimera, CF (R&D Systems Cat#1129-ER) (human, UniProt P04626 23-652); assay: ECL Multispot (MSD), 10 nM Fab; blank 198
T4 construct: Bought reagent; also called human epidermal growth factor 2 receptor; Fc part of the bought chimera not given

[5] = biological target: T5, rHuman EGF R/Fc Chimera, CF (R&D Systems Cat#344-ER) (human, UniProt P00533 25-645); assay: ECL Multispot (MSD), 10 nM Fab; blank 198
T5 construct: Bought reagent; also called epidermal growth factor receptor; Fc part of the bought chimera not given

[6] = biological target: T6, rHuman HGF R/c-MET/Fc Chimera, CF (R&D Systems Cat#358-MT/CF) (human, UniProt P08581 25-932); assay: ECL Multispot (MSD), 10 nM Fab; blank 198
T6 construct: Bought reagent; also called HGF R/Fc; hepatocyte growth factor receptor; Fc part of the bought chimera not given

[7] = biological target: T7, rHuman Notch-1/Fc Chimera, CF (R&D Systems Cat#3647-TK) (human, UniProt P46531 19-526); assay: ECL Multispot (MSD), 10 nM Fab; blank 198
T7 construct: Bought reagent; Fc part of the bought chimera not given

[8] = biological target: T8, rHuman CD44/Fc Chimera, CF (R&D Systems Cat#3660-CD) (human, UniProt P16070 21-220); assay: ECL Multispot (MSD), 10 nM Fab; blank 198
T8 construct: Bought reagent; Fc part of the bought chimera not given

[9] = biological target: T1, rHuman IGF-1 sR, CF (R&D Systems …); assay: ECL Multispot (MSD), 10 nM Fab; blank 320
[10] = biological target: T2, rHuman P-Cadherin/Fc Chimera, CF (R&D …); assay: ECL Multispot (MSD), 10 nM Fab; blank 320
[11] = biological target: T3, rHuman Erythropoietin R/Fc Chimera, CF …; assay: ECL Multispot (MSD), 10 nM Fab; blank 320
[12] = biological target: T4, rHuman ErbB2/Fc Chimera, CF (R&D …); assay: ECL Multispot (MSD), 10 nM Fab; blank 320
[13] = biological target: T5, rHuman EGF R/Fc Chimera, CF (R&D …); assay: ECL Multispot (MSD), 10 nM Fab; blank 320
[14] = biological target: T6, rHuman HGF R/c-MET/Fc Chimera, CF (R&D …); assay: ECL Multispot (MSD), 10 nM Fab; blank 320
[15] = biological target: T7, rHuman Notch-1/Fc Chimera, CF (R&D …); assay: ECL Multispot (MSD), 10 nM Fab; blank 320
[16] = biological target: T8, rHuman CD44/Fc Chimera, CF (R&D Systems …); assay: ECL Multispot (MSD), 10 nM Fab; blank 320
[17] = biological target: T1, rHuman IGF-1 sR, CF (R&D Systems …); assay: ECL Multispot (MSD), 10 nM Fab; blank 372
[18] = biological target: T2, rHuman P-Cadherin/Fc Chimera, CF (R&D …); assay: ECL Multispot (MSD), 10 nM Fab; blank 372
[19] = biological target: T3, rHuman Erythropoietin R/Fc Chimera, CF …; assay: ECL Multispot (MSD), 10 nM Fab; blank 372
[20] = biological target: T4, rHuman ErbB2/Fc Chimera, CF (R&D …); assay: ECL Multispot (MSD), 10 nM Fab; blank 372
[21] = biological target: T5, rHuman EGF R/Fc Chimera, CF (R&D …); assay: ECL Multispot (MSD), 10 nM Fab; blank 372
[22] = biological target: T6, rHuman HGF R/c-MET/Fc Chimera, CF (R&D …); assay: ECL Multispot (MSD), 10 nM Fab; blank 372
[23] = biological target: T7, rHuman Notch-1/Fc Chimera, CF (R&D …); assay: ECL Multispot (MSD), 10 nM Fab; blank 372
[24] = biological target: T8, rHuman CD44/Fc Chimera, CF (R&D Systems …); assay: ECL Multispot (MSD), 10 nM Fab; blank 372
[25] = biological target: T9, rHuman IGF-1 sR, CF (R&D Systems Cat#391-GR) (human, UniProt P08069 31-932); assay: ECL Multispot (MSD) assay, antigen spotted on plate, 10 nM Fab; blank spot of this row 290
T9 construct: Bought soluble receptor; The column head prints only 'IGF-1'; also called insulin-like growth factor-1 soluble receptor

[26] = biological target: T10, rHuman P-Cadherin/Fc Chimera, CF (R&D Systems Cat#861-PC) (human, UniProt P22223 108-654); assay: as above
T10 construct: Bought reagent; Fc part of the bought chimera not given

[27] = biological target: T11, rHuman ErbB2/Fc Chimera, CF (R&D Systems Cat#1129-ER) (human, UniProt P04626 23-652); assay: as above
T11 construct: Bought reagent; also called human epidermal growth factor 2 receptor; Fc part of the bought chimera not given

[28] = biological target: T12, rHuman EGF R/Fc Chimera, CF (R&D Systems Cat#344-ER) (human, UniProt P00533 25-645); assay: as above
T12 construct: Bought reagent; also called epidermal growth factor receptor; Fc part of the bought chimera not given

[29] = biological target: T13, rHuman HGF R/c-MET/Fc Chimera, CF (R&D Systems Cat#358-MT/CF) (human, UniProt P08581 25-932); assay: as above
T13 construct: Bought reagent; also called HGF R/Fc; hepatocyte growth factor receptor; Fc part of the bought chimera not given

ECL signal [1]: 230
ECL signal [2]: 280
ECL signal [3]: 228
ECL signal [4]: 200
ECL signal [5]: 255
ECL signal [6]: 258
ECL signal [7]: 336
ECL signal [8]: 214
ECL signal [9]: 270
ECL signal [10]: 301
ECL signal [11]: 421
ECL signal [12]: 413
ECL signal [13]: 324
ECL signal [14]: 269
ECL signal [15]: 390
ECL signal [16]: 385
ECL signal [17]: 318
ECL signal [18]: 338
ECL signal [19]: 252
ECL signal [20]: 513
ECL signal [21]: 460
ECL signal [22]: 339
ECL signal [23]: 433
ECL signal [24]: 298
B1: Fab VH1-46_IGHD6-6*01_IGHJ1*01 S102A/S103P/S104F (APF) & L6_IGKJ1*01 (Fab, V domains shown)
VH: QVQLVQSGAEVKKPGASVKVSCKASGYTFTSYYMHWVRQAPGQGLEWMGIINPSGGSTSYAQKFQGRVTMTRDTSTSTVYMELSSLRSEDTAVYYCAREEYAPFSAEYFQHWGQGTLVTVSS
VL: not shown
notes: Tested as a Fab made in E. coli; The heavy chain plasmid A adds CH1 with His6 and Flag tags; The light chain plasmid C adds kappa CL; also called H:APF & L:wt; APF triple mutant

ECL signal [25]: 345
ECL signal [26]: 461
ECL signal [27]: 370
ECL signal [28]: 409
ECL signal [29]: 493
B2: Fab VH1-46_IGHD6-6*01_IGHJ1*01 S102A/S103P/S104F/H111F (APFF) & L6_IGKJ1*01 (Fab, V domains shown)
VH: QVQLVQSGAEVKKPGASVKVSCKASGYTFTSYYMHWVRQAPGQGLEWMGIINPSGGSTSYAQKFQGRVTMTRDTSTSTVYMELSSLRSEDTAVYYCAREEYAPFSAEYFQFWGQGTLVTVSS
VL: not shown
notes: Fab format as for APF (CH1 and kappa CL from the expression plasmids); also called APF H111F; H:APFF & L:wt
